Patent US20050196380A1, “Method for delivering therapeutic proteins to the intradermal compartment” (priority 2004, published 2005)
Where “and” joins values, the source holds several entries; their conditions need not be identical. Equal values may be shown once. Entries after “also recorded” stand apart in the source; their conditions may differ.

Legend:
female Wistar rats [1] = assay: Visual observation of injection site irritation; type: in vivo, rat; conditions: ID administration, 3 times/wk for 24 weeks
Excerpt: (§1) Blood samples were collected once a week.
FIGS. 16A-B show injection site photos of IFN-β to female Wistar rats. Panel A is an intramuscular injection. The back of a rat's leg is shown. The injection was made into the hamstring muscle. Panel B is an intradermal injection on the rat's back. The “bleb” is circled. No irritation is evident in either photo. These photos were taken immediately post-injection.

female Wistar rats [2] = assay: Isotype specific (IgG1, IgG2b) antibody response against IFN-β by ELISA; type: in vivo, rat
Method: Isotype specific antibody responses against IFN-β were determined at weeks 2 and 24 post-injection using an ELISA Quantification Kit, commercially available from Bethyl Laboratories (Bethyl Inc., Montgomery, Tex.). A 96 well microtiter plate (Nunc Maxi-sorb plate) was coated with 1 μg/mL of IFN antigen and incubated overnight at 4° C. (to generate a standard curve wells were coated with 1 μL of capture antibody to 100 μL coating buffer); plates were washed with 50 mM Tris buffered saline, pH 8.0, 0.05% Tween (Sigma #T9039); 200 μL of Post Coat/Block solution (50 mM Tris buffered saline, pH 8.0, 1% BSA; Sigma #T6789) was added per well and incubated covered for 30 minutes at room temperature. Standards were prepared according to the package insert using the Sample/Conjugate Diluent (0.5 mL of 10% Tween 20; Sigma # P7949) per 100 mL of PostCoat/Block Solution; sample dilutions were made using the Sample/Conjugate Diluent; 100 μL of standard or sample was transferred to assigned wells and incubated for 1 hour at room temperature; conjugate was prepared according to package insert (1:20,000 for IgG1 and 1:40,000 for IgG2b); 100 μL of the conjugate was added per well and incubated for 1 hour at room temperature; 100 μL of TMB per well was added and incubated at room temperature for 30 minutes; 200 μL of 0.5 M H2SO4 per well was added to stop the reaction; plates were read at 450 nm.
as §1

female Wistar rats [3] = conditions: rat, in vivo
Method: MATERIALS AND METHODS: Antibody titers were evaluated using an ELISA assay. 100 μL of 1 μg/mL of rat interferon beta (Cell Sciences Inc. (Canton, Mass.)) in coating buffer was added to the wells of a 96 well plate. The plate was incubated at 4° C. overnight. Well contents were removed and the wells were blocked with 5% skim milk in PBST for 2 hours at 37° C. Wells were washed and 100 μL of serum samples were added to the first row of wells. Samples were serially diluted across the plate. The plate was incubated for 1 hour at 37° C. and washed. 100 μL of 1:4000 diluted, anti-rat HRP-conjugated antibody was added to each well and the plate was incubated for 30-60 minutes at 37° C. 100 μL of TMB color developer was added to each well. 200 μL of hydrochloric acid reaction stopper was added to each well. The plate was read at 450 nm. The antibody titer is the dilution giving 3 times absorbance of blank serum.
STUDY DESIGN: A chronic dosing regimen was performed in female Wistar rats using recombinant rat IFN-β (Cell Sciences Inc. (Canton, Mass.)). An injection route comparison was performed evaluating the immunogenicity of IFN-β upon injection intradermally or intramuscularly. IFN-β was injected intradermally using BD's 34 Ga, 1 mm needle and injected intramuscularly using BD 30 Ga×0.5″ to the hamstring muscle. […] Blood samples were collected once a week.

female Wistar rats [4] = conditions: rat, in vivo; remark: listed apart in the source
female Wistar rats [5] = assay: Histological evaluation of injection site following IM and ID administration of interferon-beta; type: in vivo, rat
Excerpt: Sample Preparation: For ID injection, the skin was removed from each injection site and placed on a small card. The excised skin was approximately lcm in diameter with the needle insertion point in the center. The center of the injection was marked with black tattoo ink at time of injection to help identify the needle insertion point. Samples were placed in individual containers with 10% formalin for fixation. For IM injection, the needle insertion point was marked with black tattoo ink at the time of injection. The skin was carefully lifted and the muscle surface directly below the needle insertion point was marked with black tattoo ink. The hamstring muscle was collected and placed on a small card. Samples were placed in individual containers with 10% formalin for fixation. […]
Sample Identification: Samples are identified by the following system. In animals 801, 803, 804, 806, 807, 808, 809 and 810 intramuscular injections were made to the hamstring muscle of female Wistar rats. In animals 811, 812, 813, 814, 815, 816, 817, 818, 819 and 820 intradermal injections (approximately 1 mm deep) were made to the lateral dorsum of female Wistar rats.
Specimen Preparation: A single section was taken from each sample. Tissue was blocked to a size appropriate for sectioning. The section was taken through the needle insertion track. Sections were H&E stained and evaluated. If evidence of irritation was observed, further sections were taken to determine the extent of the irritation. Samples were graded on a multi-parameter irritancy scale. Histological alterations were graded on the following 5-grade scale: • Grade 0: Normal/Absent/None • Grade 1: Minimal/Cell Degeneration • Grade 2: Mild/Cell Necrosis • Grade 3: Moderate/Focal Erosion • Grade 4: Marked/Massive/Generalized Erosion • Present: Finding present/Severity not scored
In addition to the grading scale, descriptions of changes and findings were documented. Measurements were taken of the Width and Depth of any site irritation as well as skin thickness. Representative photos were taken of each condition.
Study Design: Rat interferon beta (Cell Sciences Inc. (Canton, Mass.)) was administered IM or ID in phosphate buffered saline using methods described supra. The animals were divided according to the following scheme:
Intramuscular Group—Day 1: The hair on the back and on the back of the rear leg was clipped. Injection was performed using a BD 30 G×0.5″ needle to the hamstring muscle. 50 μL was injected. The center of the injection was marked with black tattoo ink to help aid in injection track identification. Rats were returned to their cages for recovery.
Intramuscular Group—Day 2 (24 hrs. post-injection): Rats were euthanized by CO2 asphxiation and the skin from rear leg was removed. The muscle directly below the needle insertion point on the skin was marked with black tattoo ink. The hamstring muscle was excised, placed on small card and stored in 10% formalin solution.
Intradermal group-Day 1 The hair on the lateral dorsum was closely clipped. and injection was performed using a 1 mm BD microneedle. 50 μL was injected The center of the injection was marked with black tattoo ink to help aid needle track identification. Rats were returned to their cages for recovery.
[…] A 1 cm diameter margin of skin (full-thickness) around the injection site was excised. Skin was placed on a small card and stored in 10% formalin solution.

[6] = ID injection, individual animals, marked grade

B1: IFN-β: recombinant rat IFN-β (Cell Sciences Inc., Canton, Mass.) (protein, UniProt P70499 22-184, looked up)
Interferon beta: IDYKQLQFRQSTSIRTCQKLLRQLNGRLNLSYRTDFKIPMEVMHPSQMEKSYTAFAIQVMLQNVFLVFRSNFSSTGWNETIVESLLDELHQQTELLEIILKEKQEERLTWVTSTTTLGLKSYYWRVQRYLKDKKYNSYAWMVVRAEVFRNFSIILRLNRNFQN
acute or chronic injection site irritation (external, visual) (female Wistar rats [1]): No external acute or chronic injection site irritation
IFN-β specific IgG1 antibody, ID vs IM (female Wistar rats [2]; week 2): only one animal showed any detectable IgG1 antibody; also recorded: higher
IFN-β specific IgG2b antibody (female Wistar rats [2]; week 2, IM or ID): no IgG2b was detectable
mean IFN-β specific IgG2b concentration, ID vs IM (female Wistar rats [2]; week 24): not significantly different; also recorded: comparable
animals with increase in titer from week 12 (female Wistar rats [3]): one
animals with marked increase in titer from week 12 (female Wistar rats [3]): Three
antibody response, ID vs IM (female Wistar rats [3]): slightly stronger
antibody response, IM vs ID (female Wistar rats [3]): slightly higher
antibody titers by ELISA, IM vs ID (female Wistar rats [3]): not significantly different
mean antibody response, IM vs ID (female Wistar rats [3]): higher mean antibody response
mean antibody titers by ELISA, IM vs ID (two sample t-test) (female Wistar rats [3]): not significantly different
mean IFN-β specific NAbs titers, IM vs ID (female Wistar rats [4]): not significantly different
cellular reaction, in general (female Wistar rats [5]; 2 weeks): minimal
infiltration of injection sites with lymphocytes and neutrophils (female Wistar rats [5]; 2 weeks, intradermal sites): minimally infiltrated
inflammatory cell infiltrates of injection sites, compared with intradermal sites (female Wistar rats [5]; 2 weeks, intramuscular sites): more prominent
cellular reaction (inflammation) (female Wistar rats [5]; 24 weeks, ID injection): minimal to moderate
Irritation Index (female Wistar rats [5]; ID injection, individual animals 811-820, 24 hours post-injection): 3 and 2
Dermis, leukocyte infiltration (per 40× field) (female Wistar rats [5]; [6]): Moderate - 51-100 (Moderate - 51-100)
Edema grade (female Wistar rats [5]; [6]): Absent
Epidermis reaction grade (female Wistar rats [5]; [6]): Normal, intact
Vascular Congestion grade (female Wistar rats [5]; [6]): Absent
overall irritation index designation / histopathological classification of irritation (female Wistar rats [5]; ID sites): minimal
